Data reported in article PMC6597003 (ACS chemical biology, 2018).
Ends that are not written are not given here.

How the values were obtained:
EphA2 = conditions: recently reported by the authors; cited from earlier work
[1] = target: ephrin type-A receptor 2 ligand-binding domain (UniProt P29317 23-202); test: DELFIA displacement assay
Sequence of ephrin type-A receptor 2 ligand-binding domain (P29317 23-202): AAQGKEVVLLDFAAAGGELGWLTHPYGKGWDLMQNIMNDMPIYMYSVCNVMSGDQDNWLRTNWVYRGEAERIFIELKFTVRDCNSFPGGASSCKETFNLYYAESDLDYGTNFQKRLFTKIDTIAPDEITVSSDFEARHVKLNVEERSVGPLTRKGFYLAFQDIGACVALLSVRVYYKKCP

Molecule | concentration required in cell-based assays to activate the receptor (EphA2) | IC50 [1]
CSCC[C@H](NC(=O)[C@H](CCSC)NC(=O)[C@@H]1CCCN1C(=O)[C@@H](NC(=O)[C@H](CO)NC(=O)[C@H](CC(=O)O)NC(=O)[C@@H]1CCCN1C(=O)[C@H](Cc1ccc(O)cc1)NC(=O)[C@H](C)NC(=O)[C@H](CO)NC(=O)[C@@H](N)Cc1ccc(O)cc1)C(C)C)C(=O)N[C@@H](CO)C(N)=O [YSA] | tripledigit micromolar concentration | 
YSLYPDSVPFRP-NH2 [135D8] |  | > 200 µM
YSVYPDSVPFRP-NH2 [135D7] |  | > 200 µM
YSCYPDSVPFRP-NH2 [135D6] |  | > 100 µM
YSAYPLSVEMMS-NH2 [135B2] |  | > 200 µM
YDYVAVAGPAEY-NH2 [135A1 (1C1)] |  | > 500 µM
FTAFPLGFEFRP-NH2 [135B8] |  | > 100 µM
YSAYPDSVEMMS-NH2 [135B1] |  | > 100 µM
YSAYPLSVEFRP-NH2 [135A7] |  | > 100 µM
FTAFPLGFEMMS-NH2 [135B9] |  | > 100 µM
